Where two headings read alike, the source gives them in different places. Square brackets hold non-standard residues; d marks the D form. Ends that are not written are not given here. Abu(4-SO3H) = N[C@@H](CCS(=O)(=O)O)C(=O)O; PhLac = O=C(O)[C@@H](O)Cc1ccccc1; PLA = not defined here
How the values were obtained:
human glucagon receptor [1] = biological target: T1, human glucagon receptor (human, UniProt P47871 26-477); experiment: cell-based or functional assay
human GLP-1 receptor = human GLP-1 receptor (human, UniProt P43220 24-463); experiment: cell-based or functional assay
human glucagon receptor [2] = biological target: T1, human glucagon receptor; experiment: SPA competition vs 125I-glucagon, receptor membranes
human glucagon receptor [3] = biological target: T1, human glucagon receptor; experiment: cell-based or functional assay; remark: listed apart in the source
human glucagon receptor [4] = biological target: T1, human glucagon receptor; experiment: cell-based or functional assay; remark: listed apart in the source
human glucagon receptor [5] = biological target: T1, human glucagon receptor; experiment: cell-based or functional assay; remark: listed apart in the source
human glucagon receptor [6] = biological target: T1, human glucagon receptor; experiment: cell-based or functional assay; remark: listed apart in the source
human glucagon receptor [7] = biological target: T1, human glucagon receptor; experiment: cell-based or functional assay; remark: listed apart in the source
human glucagon receptor [8] = biological target: T1, human glucagon receptor; experiment: cell-based or functional assay; remark: listed apart in the source
human glucagon receptor [9] = biological target: T1, human glucagon receptor; experiment: cell-based or functional assay; remark: listed apart in the source
human glucagon receptor [10] = biological target: T1, human glucagon receptor; experiment: cell-based or functional assay; remark: listed apart in the source

T1 sequence (P47871 26-477): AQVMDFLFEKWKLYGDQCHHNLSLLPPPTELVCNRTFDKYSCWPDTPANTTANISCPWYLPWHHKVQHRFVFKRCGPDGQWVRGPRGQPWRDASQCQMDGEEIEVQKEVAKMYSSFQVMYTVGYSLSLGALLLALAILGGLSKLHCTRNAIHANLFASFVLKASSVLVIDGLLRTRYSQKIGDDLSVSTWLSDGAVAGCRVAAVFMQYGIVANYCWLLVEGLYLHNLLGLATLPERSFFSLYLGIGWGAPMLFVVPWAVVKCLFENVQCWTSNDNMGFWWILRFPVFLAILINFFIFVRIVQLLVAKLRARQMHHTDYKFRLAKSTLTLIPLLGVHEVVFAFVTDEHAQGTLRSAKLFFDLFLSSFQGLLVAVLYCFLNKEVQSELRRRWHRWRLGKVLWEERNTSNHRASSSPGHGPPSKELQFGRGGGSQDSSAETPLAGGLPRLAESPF

## Oxyntomodulin KRNR (peptide)
Human glucagon receptor [1]
  cAMP Induction EC50: 2.77 nM
Human GLP-1 receptor
  cAMP Induction EC50: 3.21 nM

## [desHis^1, desPhe^6] Glucagon-NH2 (peptide)
Human glucagon receptor [2]
  IC50: 130 nM
Human glucagon receptor [1]
  cAMP Induction EC50: 1180 nM

B1: [PLA6, E9]Glucagon(aa6-29)-NH2 (peptide)
peptide: [PhLac]TSEYSKYLDSRRAQDFVQWLMNT-NH2
Human glucagon receptor [3]
  IC50 (nM) (cAMP, inhibit 0.8 mM Glucagon): 64.8 nM
Human glucagon receptor [4]
  Glucagon antagonism IC50(nM, inhibit 0.5 nM G): 23.8 nM

B2: [PLA^4, E^9]Glucagon(aa4-29)-NH2 (peptide)
peptide: [PhLac]TFTSEYSKYLDSRRAQDFVQWLMNT-NH2
modifications: N-terminus assumed
SMILES: CSCC[C@H](NC(=O)[C@H](CC(C)C)NC(=O)[C@H](Cc1c[nH]c2ccccc12)NC(=O)[C@H](CCC(N)=O)NC(=O)[C@@H](NC(=O)[C@H](Cc1ccccc1)NC(=O)[C@H](CC(=O)O)NC(=O)[C@H](CCC(N)=O)NC(=O)[C@H](C)NC(=O)[C@H](CCCNC(=N)N)NC(=O)[C@H](CCCNC(=N)N)NC(=O)[C@H](CO)NC(=O)[C@H](CC(=O)O)NC(=O)[C@H](CC(C)C)NC(=O)[C@H](Cc1ccc(O)cc1)NC(=O)[C@H](CCCCN)NC(=O)[C@H](CO)NC(=O)[C@H](Cc1ccc(O)cc1)NC(=O)[C@H](CCC(=O)O)NC(=O)[C@H](CO)NC(=O)[C@@H](NC(=O)[C@H](Cc1ccccc1)NC(=O)[C@@H](NC(=O)[C@@H](O)Cc1ccccc1)[C@@H](C)O)[C@@H](C)O)C(C)C)C(=O)N[C@@H](CC(N)=O)C(=O)N[C@H](C(N)=O)[C@@H](C)O
Human glucagon receptor [3]
  IC50 (nM) (cAMP, inhibit 0.8 mM Glucagon): 84.4 nM

B3: [PLA^5, E^9]Glucagon(aa5-29)-NH2 (peptide)
peptide: [PhLac]FTSEYSKYLDSRRAQDFVQWLMNT-NH2
modifications: N-terminus assumed
SMILES: CSCC[C@H](NC(=O)[C@H](CC(C)C)NC(=O)[C@H](Cc1c[nH]c2ccccc12)NC(=O)[C@H](CCC(N)=O)NC(=O)[C@@H](NC(=O)[C@H](Cc1ccccc1)NC(=O)[C@H](CC(=O)O)NC(=O)[C@H](CCC(N)=O)NC(=O)[C@H](C)NC(=O)[C@H](CCCNC(=N)N)NC(=O)[C@H](CCCNC(=N)N)NC(=O)[C@H](CO)NC(=O)[C@H](CC(=O)O)NC(=O)[C@H](CC(C)C)NC(=O)[C@H](Cc1ccc(O)cc1)NC(=O)[C@H](CCCCN)NC(=O)[C@H](CO)NC(=O)[C@H](Cc1ccc(O)cc1)NC(=O)[C@H](CCC(=O)O)NC(=O)[C@H](CO)NC(=O)[C@@H](NC(=O)[C@H](Cc1ccccc1)NC(=O)[C@@H](O)Cc1ccccc1)[C@@H](C)O)C(C)C)C(=O)N[C@@H](CC(N)=O)C(=O)N[C@H](C(N)=O)[C@@H](C)O
Human glucagon receptor [3]
  IC50 (nM) (cAMP, inhibit 0.8 mM Glucagon): 328 nM

B4: Glucagon R12 K29 (peptide)
peptide: HSQGTFTSDYSRYLDSRRAQDFVQWLMNK
Human glucagon receptor [5]
  cAMP Induction EC50: 0.81 nM
Human GLP-1 receptor
  cAMP Induction EC50: 0.41 nM

B5: [Glu^9]Glucagon(aa6-29)-NH2 (peptide)
peptide: FTSEYSKYLDSRRAQDFVQWLMNT-NH2
Human glucagon receptor [6]
  cAMP (I/A)50, inhibition index: 486 ratio
Human glucagon receptor [7]
  cAMP Inhibition IC50: 97 nM
Human glucagon receptor [8]
  cAMP IC50: 97.2 nM

B6: [PLA6, D9, D28]Glucagon(aa6-29)-NH2 (peptide)
peptide: FTSDYSKYLDSRRAQDFVQWLMDT
modifications: N-terminal residue is phenyl lactic acid (PLA) in place of Phe 6; C-terminal amide
Human glucagon receptor [9]
  IC50 (nM) (cAMP, inhibit Glucagon) 0.1 nM or 0.2 nM: 1.32 nM
Human glucagon receptor [4]
  Glucagon antagonism IC50(nM, inhibit 0.5 nM G): 9.03 nM

B7: [hCys^9(SO3H)]Glucagon(aa6-29)-NH2 (peptide)
peptide: FTS[Abu(4-SO3H)]YSKYLDSRRAQDFVQWLMNT-NH2
Human glucagon receptor [8]
  cAMP IC50: 133 nM
Human glucagon receptor [10]
  cAMP IC50: 133 nM

B8: [hCys^9(SO3H)]Glucagon(aa4-29)-NH2 (peptide)
peptide: GTFTS[Abu(4-SO3H)]YSKYLDSRRAQDFVQWLMNT-NH2
modifications: N-terminus assumed
SMILES: CSCC[C@H](NC(=O)[C@H](CC(C)C)NC(=O)[C@H](Cc1c[nH]c2ccccc12)NC(=O)[C@H](CCC(N)=O)NC(=O)[C@@H](NC(=O)[C@H](Cc1ccccc1)NC(=O)[C@H](CC(=O)O)NC(=O)[C@H](CCC(N)=O)NC(=O)[C@H](C)NC(=O)[C@H](CCCNC(=N)N)NC(=O)[C@H](CCCNC(=N)N)NC(=O)[C@H](CO)NC(=O)[C@H](CC(=O)O)NC(=O)[C@H](CC(C)C)NC(=O)[C@H](Cc1ccc(O)cc1)NC(=O)[C@H](CCCCN)NC(=O)[C@H](CO)NC(=O)[C@H](Cc1ccc(O)cc1)NC(=O)[C@H](CCS(=O)(=O)O)NC(=O)[C@H](CO)NC(=O)[C@@H](NC(=O)[C@H](Cc1ccccc1)NC(=O)[C@@H](NC(=O)CN)[C@@H](C)O)[C@@H](C)O)C(C)C)C(=O)N[C@@H](CC(N)=O)C(=O)N[C@H](C(N)=O)[C@@H](C)O
Human glucagon receptor [10]
  cAMP IC50: 68.4 nM

B9: [PLA6, hCys(SO3)9]Glucagon(aa6-29)-NH2 (peptide)
peptide: [PhLac]TS[Abu(4-SO3H)]YSKYLDSRRAQDFVQWLMNT-NH2
Human glucagon receptor [9]
  IC50 (nM) (cAMP, inhibit Glucagon) 0.1 nM or 0.2 nM: 40.2 nM

B10: [hCys^9(SO3H)]Glucagon(aa5-29)-NH2 (peptide)
peptide: TFTS[Abu(4-SO3H)]YSKYLDSRRAQDFVQWLMNT-NH2
modifications: N-terminus assumed
SMILES: CSCC[C@H](NC(=O)[C@H](CC(C)C)NC(=O)[C@H](Cc1c[nH]c2ccccc12)NC(=O)[C@H](CCC(N)=O)NC(=O)[C@@H](NC(=O)[C@H](Cc1ccccc1)NC(=O)[C@H](CC(=O)O)NC(=O)[C@H](CCC(N)=O)NC(=O)[C@H](C)NC(=O)[C@H](CCCNC(=N)N)NC(=O)[C@H](CCCNC(=N)N)NC(=O)[C@H](CO)NC(=O)[C@H](CC(=O)O)NC(=O)[C@H](CC(C)C)NC(=O)[C@H](Cc1ccc(O)cc1)NC(=O)[C@H](CCCCN)NC(=O)[C@H](CO)NC(=O)[C@H](Cc1ccc(O)cc1)NC(=O)[C@H](CCS(=O)(=O)O)NC(=O)[C@H](CO)NC(=O)[C@@H](NC(=O)[C@H](Cc1ccccc1)NC(=O)[C@@H](N)[C@@H](C)O)[C@@H](C)O)C(C)C)C(=O)N[C@@H](CC(N)=O)C(=O)N[C@H](C(N)=O)[C@@H](C)O
Human glucagon receptor [10]
  cAMP IC50: 98.3 nM

B11: [hCys^9(SO3H)]Glucagon(aa2-29)-NH2 (peptide)
peptide: SQGTFTS[Abu(4-SO3H)]YSKYLDSRRAQDFVQWLMNT-NH2
Human glucagon receptor [10]
  cAMP IC50: 147 nM

B12: [PLA6, E9]Glucagon(aa6-29+CEX)-NH2 (peptide)
peptide: [PLA]TSEYSKYLDSRRAQDFVQWLMNTGPSSGAPPPS-NH2
modifications: reading uncertain
Human glucagon receptor [9]
  IC50 (nM) (cAMP, inhibit Glucagon) 0.1 nM or 0.2 nM: 24.8 nM

B13: [Glu^9]Glucagon(aa4-29)-NH2 (peptide)
peptide: GTFTSEYSKYLDSRRAQDFVQWLMNT-NH2
Human glucagon receptor [6]
  cAMP (I/A)50, inhibition index: 1380 ratio
Human glucagon receptor [7]
  cAMP Inhibition IC50: 128 nM
